Reference: publication PMC1810427, “MLN51 Stimulates the RNA-Helicase Activity of eIF4AIII”

Experiments:
[1] = molecular target: MLN51 SELOR (UniProt O15234 137-283); test: SPR; no nucleotide; 5 mM Mg2+; SPR (Biacore 2000): 40 mM Tris-HCl pH 7.8, 50 mM NaCl, 4 mM DTT, 5 mM MgCl2, 0.002% Tween 20, 30 ul/min, 10-160 nM protein; temperature not stated; conditions: protein: recombinant; tags: GST cleaved off (PreScission); label: 5' biotin; single strand
[2] = molecular target: eIF4AIII;MLN51 SELOR;Y14;Magoh (human;human;human, UniProt P38919;O15234;Q9Y5S9;P61326 1-411;137-283;50-174;1-146, |||); test: SPR; ATP; 5 mM Mg2+; SPR (Biacore 2000): 40 mM Tris-HCl pH 7.8, 50 mM NaCl, 4 mM DTT, 5 mM MgCl2, 0.002% Tween 20, 30 ul/min, 10-160 nM protein; temperature not stated; conditions: protein: recombinant;recombinant;recombinant;recombinant; tags: N-terminal His6;GST cleaved off (PreScission);none;N-terminal His6; copies: 1;1;1;1; label: 5' biotin; single strand
[3] = molecular target: eIF4AIII;MLN51 SELOR (human;human?, UniProt P38919;O15234 1-411;137-283, |); test: SPR; AMPPNP; 5 mM Mg2+; SPR (Biacore 2000): 40 mM Tris-HCl pH 7.8, 50 mM NaCl, 4 mM DTT, 5 mM MgCl2, 0.002% Tween 20, 30 ul/min, 10-160 nM protein; temperature not stated; conditions: protein: recombinant;recombinant; tags: N-terminal His6;GST cleaved off (PreScission); copies: 1;1; label: 5' biotin; single strand
[4] = molecular target: Y14;Magoh (human;human, UniProt Q9Y5S9;P61326 50-174;1-146, |); test: SPR; no nucleotide stated; 5 mM Mg2+; SPR (Biacore 2000): 40 mM Tris-HCl pH 7.8, 50 mM NaCl, 4 mM DTT, 5 mM MgCl2, 0.002% Tween 20, 30 ul/min, 10-160 nM protein; temperature not stated; conditions: protein: recombinant;recombinant; tags: none;N-terminal His6; copies: 1;1; label: 5' biotin; single strand
Chain of Y14;Magoh (P61326 whole entry, chain 2 of 2, other chains not shown): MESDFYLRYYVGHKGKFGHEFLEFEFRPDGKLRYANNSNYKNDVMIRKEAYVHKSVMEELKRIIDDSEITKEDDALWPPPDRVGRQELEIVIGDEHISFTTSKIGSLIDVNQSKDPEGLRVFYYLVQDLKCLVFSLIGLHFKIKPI

Chain of eIF4AIII;MLN51 SELOR (P38919 whole entry, chain 1 of 2): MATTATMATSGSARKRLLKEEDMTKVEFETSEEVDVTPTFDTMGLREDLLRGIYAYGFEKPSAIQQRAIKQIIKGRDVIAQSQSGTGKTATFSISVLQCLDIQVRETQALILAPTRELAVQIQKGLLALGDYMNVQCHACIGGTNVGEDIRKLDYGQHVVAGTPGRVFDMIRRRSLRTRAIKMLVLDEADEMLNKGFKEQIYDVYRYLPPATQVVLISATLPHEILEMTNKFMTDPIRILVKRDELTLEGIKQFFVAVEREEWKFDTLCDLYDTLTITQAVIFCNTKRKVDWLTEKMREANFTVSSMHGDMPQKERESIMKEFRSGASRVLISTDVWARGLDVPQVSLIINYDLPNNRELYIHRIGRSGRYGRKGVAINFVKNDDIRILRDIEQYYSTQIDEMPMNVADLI
Chain of eIF4AIII;MLN51 SELOR (O15234 137-283, chain 2 of 2): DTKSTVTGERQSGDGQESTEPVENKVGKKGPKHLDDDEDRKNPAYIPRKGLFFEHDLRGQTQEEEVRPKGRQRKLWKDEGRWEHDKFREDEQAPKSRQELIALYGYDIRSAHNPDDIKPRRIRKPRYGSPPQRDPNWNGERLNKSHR
Chain of eIF4AIII;MLN51 SELOR;Y14;Magoh (P38919 whole entry, chain 1 of 4, other chains not shown): as the sequence (P38919 whole entry, chain 1 of 2) above
Chain of eIF4AIII;MLN51 SELOR;Y14;Magoh (O15234 137-283, chain 2 of 4, other chains not shown): as the sequence (O15234 137-283, chain 2 of 2) above
Chain of eIF4AIII;MLN51 SELOR;Y14;Magoh (P61326 whole entry, chain 4 of 4, other chains not shown): as the sequence (P61326 whole entry, chain 2 of 2, other chains not shown) above
Chain of MLN51 SELOR (O15234 137-283): as the sequence (O15234 137-283, chain 2 of 2) above

AUGUCAUUCGAGUACAGUCUGUUCAGCUAGUCUCC (ssRNA) [35-mer ssRNA]
Kd [1]: ~1000 nM | Kd [2]: ~10 nM | Kd [3]: ~10 nM | Kd [4]: ~2000 nM
